Patent US20110301098A1, “TREATMENT FOR INTIMAL HYPERPLASIA AND RELATED CONDITIONS” (priority 2006, published 2011)
Like-named read-outs stand apart in the source and are kept apart here. Positions of bridges follow the written chain, without caps; N, C: chain ends. Non-standard residues stand in square brackets, D forms with d. Residues, ends and D or L forms follow the SMILES beside them. *: point of attachment. Hydrocinnamoyl = O=C(CCc1ccccc1)*; dCha = N[C@H](CC1CCCCC1)C(=O)O; Orn = NCCC[C@H](N)C(=O)O

Assays:
[1] = molecular target: T1, C5a receptor (Mus musculus, UniProt P30993); test: C5a receptor antagonist treatment in the ApoE-/- mouse vein graft model
T1 sequence (P30993 1-351): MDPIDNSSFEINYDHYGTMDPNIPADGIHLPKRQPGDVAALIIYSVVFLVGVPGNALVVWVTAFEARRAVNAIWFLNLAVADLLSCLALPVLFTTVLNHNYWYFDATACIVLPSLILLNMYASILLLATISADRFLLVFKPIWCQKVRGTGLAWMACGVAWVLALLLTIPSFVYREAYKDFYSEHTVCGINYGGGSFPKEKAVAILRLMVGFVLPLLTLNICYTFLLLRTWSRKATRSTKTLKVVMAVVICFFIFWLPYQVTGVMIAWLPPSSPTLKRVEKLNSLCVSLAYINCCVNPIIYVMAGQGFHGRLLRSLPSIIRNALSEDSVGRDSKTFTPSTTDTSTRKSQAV
Method: (§1) Male ApoE^−/− mice, aged between 12 and 16 weeks, were used for all experiments. Mice were fed a standard chow diet, and received water and food ad libitum. Before surgery, mice were anesthetized by an intra-peritoneal injection with Midazolam (5 mg/kg, Roche), Medetomidine (0.5 mg/kg, Orion) and Fentanyl (0.05 mg/kg, Janssen). Cholesterol levels in serum were determined at the time of sacrifice.
(§2) Briefly, caval veins were harvested from genetically identical donor mice, and were preserved before implantation at 4° C. in 0.9% NaCl containing 100 U/ml of heparin. In the graft recipient, the right carotid artery was dissected and cut in the middle. A polyethylene cuff was placed at both ends of the artery. The artery was everted around the cuff and ligated with a silk 8.0 suture. The caval vein was sleeved over the two cuffs and ligated. Successful engraftment was confirmed by the presence of pulsations and turbulent blood flow within the vein graft. The whole procedure usually takes about 30 minutes.
(§3) Cross-sections of vein grafts were stained with hematoxylin-phloxine-saffron, using conventional methods. The intimal hyperplasia surface of the thickened vein grafts was measured using image analysis software (Qwin, Leica). For each vein graft, six equally spaced cross-sections were used to determine the degree of vessel wall thickening.
(§4) To identify macrophages and macrophage-derived foam cells, immunohistochemistry was performed using AIA31240 primary antibodies against mouse macrophages (1:3000, Accurate Chemical). The contribution of macrophages and foam cells to the intimal hyperplasia was measured by computer-assisted analysis (Qwin, Leica) as the area stained with antibody AIA31240, and expressed as a percentage of the total intimal hyperplasia surface.
(§5) In order to inhibit C5a function, 21 mice were randomly divided in to three groups, and were treated with the cyclic peptide C5a antagonists AcF-[OP-(D-Cha)WR] (AcF) or hydrocinnamate-[OP-(D-Cha)WR] (HC). […]

[2] = system: PDGF receptor; conditions: pretreatment of the vein grafts; cited from earlier work
[3] = molecular target: T1, C5a receptor; conditions: in vivo
Method: as §1, §2, §3, §4, §5

[4] = system: vein grafts; test: Recombinant C5a applied to vein grafts in hypercholesterolaemic ApoE-/- mice; format: in vivo, mouse; conditions: for intimal hyperplasia surface: control 0.24±0.02; for macrophage/foam cell content of intimal hyperplasia: control 17±2%
Method: 153: 1301-1310. […] The whole procedure usually takes about 30 minutes.
To examine the involvement of C5a in the development of vein graft thickening, we applied recombinant C5a in two concentrations (0.5 μg and 5 μg, dissolved in 100 μl 20% Pluronic gel, n=7 per group,) directly to the vein graft at the time of surgery. In the control group 100 μl of 20% Pluronic gel without C5a was applied.
Twenty-one mice were randomly divided into three groups. In the treatment groups, either 0.5 μg or 5 μg of E. coli-derived recombinant mouse C5a (HyCult Biotechnology) was dissolved in 0.1 ml of 20% Pluronic gel, and applied around the venous interposition at the time of surgery. In the control group 0.1 ml of 20% Pluronic gel was applied without C5a. Mice were sacrificed after 28 days.

CC(=O)N[C@@H](Cc1ccccc1)C(=O)N[C@H]1CCCNC(=O)[C@H](CCCNC(=N)N)NC(=O)[C@H](Cc2c[nH]c3ccccc23)NC(=O)[C@@H](CC2CCCCC2)NC(=O)[C@@H]2CCCN2C1=O [AcF, AcF-[OP-(D-Cha)WR]]
decrease in vein graft thickening compared to control mice ([1]; 3 mg/kg/day s.c., 28 days after surgery): 53% | body weight or serum cholesterol ([1]; between the different treatment groups): No differences

Cc1ccc(C(=O)Nc2ccc(S(=O)(=O)O)c3cc(S(=O)(=O)O)cc(S(=O)(=O)O)c23)cc1NC(=O)c1cccc(NC(=O)Nc2cccc(C(=O)Nc3cc(C(=O)Nc4ccc(S(=O)(=O)O)c5cc(S(=O)(=O)O)cc(S(=O)(=O)O)c45)ccc3C)c2)c1 [Suramin]
neointimal hyperplasia [2]: significant reduction

N=C(N)NCCC[C@@H]1NC(=O)[C@H](Cc2c[nH]c3ccccc23)NC(=O)[C@@H](CC2CCCCC2)NC(=O)[C@@H]2CCCN2C(=O)[C@@H](NC(=O)CCc2ccccc2)CCCNC1=O [HC, hydrocinnamate-[OP-(D-Cha)WR]] (Hydrocinnamoyl-[Orn]P[dCha]WR; lactam 1-C)
body weight or serum cholesterol [3]: No differences

B1: C5a: E. coli-derived recombinant mouse C5a (HyCult Biotechnology) (protein, UniProt P06684 679-755, looked up)
C5a anaphylatoxin: NLHLLRQKIEEQAAKYKHSVPKKCCYDGARVNFYETCEERVARVTIGPLCIRAFNECCTIANKIRKESPHKPVQLGR
modifications: C5a anaphylatoxin
intimal hyperplasia surface ([4]; 0.5 μg C5a in 20% Pluronic gel applied to vein graft at surgery, 28 days): 0.29±0.03 mm^2 | macrophage/foam cell content of intimal hyperplasia ([4]; 0.5 μg C5a, 28 days): 22±3% | body weight and serum cholesterol ([4]; 0.5 μg and 5 μg C5a vs control): did not differ | luminal area ([4]; 0.5 μg and 5 μg C5a vs control, 28 days): No significant differences | intimal hyperplasia surface ([4]; 5 μg C5a in 20% Pluronic gel applied to vein graft at surgery, 28 days): 0.41±0.04 mm^2 | macrophage/foam cell content of intimal hyperplasia ([4]; 5 μg C5a, 28 days): 33±2%
